Source: patent publication US20090042248

Tests used:
[1] = molecular target: T1, C1-inhibitor, P05155; assay: SDS-stable complex formation of 125I-labelled MASP fragment with C1-inhibitor, reducing SDS-PAGE, autoradiography and densitometry
T1 chain: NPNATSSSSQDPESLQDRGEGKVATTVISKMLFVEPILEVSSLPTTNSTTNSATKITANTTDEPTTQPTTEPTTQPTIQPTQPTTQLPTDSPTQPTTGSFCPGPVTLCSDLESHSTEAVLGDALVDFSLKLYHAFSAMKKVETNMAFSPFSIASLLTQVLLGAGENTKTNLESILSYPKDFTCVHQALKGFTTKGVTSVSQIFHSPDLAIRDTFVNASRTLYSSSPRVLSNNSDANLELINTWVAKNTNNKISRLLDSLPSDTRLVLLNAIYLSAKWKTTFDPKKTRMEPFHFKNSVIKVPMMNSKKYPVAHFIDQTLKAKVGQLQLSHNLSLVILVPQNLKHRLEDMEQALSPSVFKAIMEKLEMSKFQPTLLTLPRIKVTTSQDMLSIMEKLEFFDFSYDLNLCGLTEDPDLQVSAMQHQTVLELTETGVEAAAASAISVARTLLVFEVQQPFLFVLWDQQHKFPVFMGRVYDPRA

[2] = molecular target: Human C4, P0C0L4
[3] = molecular target: T2, P1 Arg oligopeptide of the competing oligopeptide substrate library
T2 chain: HAAPRSANIQIAI

[4] = molecular target: 'dead' C3(NH3), P01024
[5] = molecular target: T3, Human C2, P06681
T3 chain: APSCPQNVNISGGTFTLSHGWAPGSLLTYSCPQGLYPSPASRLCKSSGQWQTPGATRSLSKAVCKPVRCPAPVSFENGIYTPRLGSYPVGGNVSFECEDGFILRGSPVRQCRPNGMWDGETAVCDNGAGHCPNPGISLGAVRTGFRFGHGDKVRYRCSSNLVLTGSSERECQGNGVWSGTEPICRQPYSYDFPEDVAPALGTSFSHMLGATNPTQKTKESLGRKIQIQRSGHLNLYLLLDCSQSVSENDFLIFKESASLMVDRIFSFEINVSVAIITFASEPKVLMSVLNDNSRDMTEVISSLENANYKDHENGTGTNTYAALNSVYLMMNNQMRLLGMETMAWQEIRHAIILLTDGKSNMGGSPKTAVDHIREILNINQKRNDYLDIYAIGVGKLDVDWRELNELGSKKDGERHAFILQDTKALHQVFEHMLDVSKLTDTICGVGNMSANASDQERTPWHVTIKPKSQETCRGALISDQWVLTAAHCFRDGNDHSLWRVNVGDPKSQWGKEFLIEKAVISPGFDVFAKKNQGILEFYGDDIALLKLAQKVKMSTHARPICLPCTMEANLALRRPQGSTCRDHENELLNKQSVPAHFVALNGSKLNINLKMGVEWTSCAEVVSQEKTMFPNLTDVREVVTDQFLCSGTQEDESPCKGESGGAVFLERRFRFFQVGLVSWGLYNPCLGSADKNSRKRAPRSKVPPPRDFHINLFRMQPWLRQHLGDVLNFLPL

[6] = molecular target: 'live' C3 (C3 with an intact thiol ester bond), P01024
[7] = molecular target: T4, P1 Lys oligopeptide of the competing oligopeptide substrate library
T4 chain: HAAPKSANIQIAI

[8] = molecular target: T1, C1-inhibitor, P05155; assay: SDS-stable complex formation of 125I-labelled MASP fragments with C1-inhibitor
[9] = molecular target: T5, alpha-2-macroglobulin, P01023
T5 chain: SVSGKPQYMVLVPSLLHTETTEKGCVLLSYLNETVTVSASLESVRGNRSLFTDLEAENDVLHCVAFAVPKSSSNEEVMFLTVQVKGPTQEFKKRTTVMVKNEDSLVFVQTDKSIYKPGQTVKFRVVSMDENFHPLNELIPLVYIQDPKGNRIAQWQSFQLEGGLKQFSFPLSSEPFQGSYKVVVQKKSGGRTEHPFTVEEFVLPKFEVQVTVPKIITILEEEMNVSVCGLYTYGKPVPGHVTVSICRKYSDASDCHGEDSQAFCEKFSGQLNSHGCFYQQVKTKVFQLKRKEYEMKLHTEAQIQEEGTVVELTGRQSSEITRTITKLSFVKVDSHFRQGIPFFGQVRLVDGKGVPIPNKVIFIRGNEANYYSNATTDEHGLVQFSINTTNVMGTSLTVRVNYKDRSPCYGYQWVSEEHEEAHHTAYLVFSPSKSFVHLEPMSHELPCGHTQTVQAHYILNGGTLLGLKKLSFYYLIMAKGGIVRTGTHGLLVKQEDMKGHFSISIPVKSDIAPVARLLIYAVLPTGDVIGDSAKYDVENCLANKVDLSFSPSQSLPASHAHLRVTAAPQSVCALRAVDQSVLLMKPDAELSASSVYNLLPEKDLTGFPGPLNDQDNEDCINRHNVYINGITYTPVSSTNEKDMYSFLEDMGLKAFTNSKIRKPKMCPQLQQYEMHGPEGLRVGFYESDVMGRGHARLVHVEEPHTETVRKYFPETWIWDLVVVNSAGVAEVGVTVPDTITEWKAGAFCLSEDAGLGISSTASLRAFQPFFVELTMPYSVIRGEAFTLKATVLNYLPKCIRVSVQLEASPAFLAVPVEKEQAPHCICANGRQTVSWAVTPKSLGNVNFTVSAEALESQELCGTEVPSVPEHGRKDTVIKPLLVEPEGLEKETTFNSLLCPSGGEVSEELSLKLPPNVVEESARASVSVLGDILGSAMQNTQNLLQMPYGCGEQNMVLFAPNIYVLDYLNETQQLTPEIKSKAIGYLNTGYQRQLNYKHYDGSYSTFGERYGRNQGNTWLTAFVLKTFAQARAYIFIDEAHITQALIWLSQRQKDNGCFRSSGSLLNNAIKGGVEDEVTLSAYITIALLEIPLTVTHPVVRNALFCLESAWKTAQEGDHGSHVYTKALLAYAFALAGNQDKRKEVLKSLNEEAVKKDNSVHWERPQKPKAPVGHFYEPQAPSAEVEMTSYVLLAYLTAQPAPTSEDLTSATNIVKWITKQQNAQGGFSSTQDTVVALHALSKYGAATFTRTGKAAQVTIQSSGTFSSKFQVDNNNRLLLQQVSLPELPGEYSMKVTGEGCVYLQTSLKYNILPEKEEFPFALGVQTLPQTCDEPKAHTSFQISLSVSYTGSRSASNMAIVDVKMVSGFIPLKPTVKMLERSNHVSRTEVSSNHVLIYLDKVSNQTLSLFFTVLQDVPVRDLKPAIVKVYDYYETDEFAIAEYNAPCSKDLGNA

Sequence of Human C4, P0C0L4 (P0C0L4 whole entry, looked up): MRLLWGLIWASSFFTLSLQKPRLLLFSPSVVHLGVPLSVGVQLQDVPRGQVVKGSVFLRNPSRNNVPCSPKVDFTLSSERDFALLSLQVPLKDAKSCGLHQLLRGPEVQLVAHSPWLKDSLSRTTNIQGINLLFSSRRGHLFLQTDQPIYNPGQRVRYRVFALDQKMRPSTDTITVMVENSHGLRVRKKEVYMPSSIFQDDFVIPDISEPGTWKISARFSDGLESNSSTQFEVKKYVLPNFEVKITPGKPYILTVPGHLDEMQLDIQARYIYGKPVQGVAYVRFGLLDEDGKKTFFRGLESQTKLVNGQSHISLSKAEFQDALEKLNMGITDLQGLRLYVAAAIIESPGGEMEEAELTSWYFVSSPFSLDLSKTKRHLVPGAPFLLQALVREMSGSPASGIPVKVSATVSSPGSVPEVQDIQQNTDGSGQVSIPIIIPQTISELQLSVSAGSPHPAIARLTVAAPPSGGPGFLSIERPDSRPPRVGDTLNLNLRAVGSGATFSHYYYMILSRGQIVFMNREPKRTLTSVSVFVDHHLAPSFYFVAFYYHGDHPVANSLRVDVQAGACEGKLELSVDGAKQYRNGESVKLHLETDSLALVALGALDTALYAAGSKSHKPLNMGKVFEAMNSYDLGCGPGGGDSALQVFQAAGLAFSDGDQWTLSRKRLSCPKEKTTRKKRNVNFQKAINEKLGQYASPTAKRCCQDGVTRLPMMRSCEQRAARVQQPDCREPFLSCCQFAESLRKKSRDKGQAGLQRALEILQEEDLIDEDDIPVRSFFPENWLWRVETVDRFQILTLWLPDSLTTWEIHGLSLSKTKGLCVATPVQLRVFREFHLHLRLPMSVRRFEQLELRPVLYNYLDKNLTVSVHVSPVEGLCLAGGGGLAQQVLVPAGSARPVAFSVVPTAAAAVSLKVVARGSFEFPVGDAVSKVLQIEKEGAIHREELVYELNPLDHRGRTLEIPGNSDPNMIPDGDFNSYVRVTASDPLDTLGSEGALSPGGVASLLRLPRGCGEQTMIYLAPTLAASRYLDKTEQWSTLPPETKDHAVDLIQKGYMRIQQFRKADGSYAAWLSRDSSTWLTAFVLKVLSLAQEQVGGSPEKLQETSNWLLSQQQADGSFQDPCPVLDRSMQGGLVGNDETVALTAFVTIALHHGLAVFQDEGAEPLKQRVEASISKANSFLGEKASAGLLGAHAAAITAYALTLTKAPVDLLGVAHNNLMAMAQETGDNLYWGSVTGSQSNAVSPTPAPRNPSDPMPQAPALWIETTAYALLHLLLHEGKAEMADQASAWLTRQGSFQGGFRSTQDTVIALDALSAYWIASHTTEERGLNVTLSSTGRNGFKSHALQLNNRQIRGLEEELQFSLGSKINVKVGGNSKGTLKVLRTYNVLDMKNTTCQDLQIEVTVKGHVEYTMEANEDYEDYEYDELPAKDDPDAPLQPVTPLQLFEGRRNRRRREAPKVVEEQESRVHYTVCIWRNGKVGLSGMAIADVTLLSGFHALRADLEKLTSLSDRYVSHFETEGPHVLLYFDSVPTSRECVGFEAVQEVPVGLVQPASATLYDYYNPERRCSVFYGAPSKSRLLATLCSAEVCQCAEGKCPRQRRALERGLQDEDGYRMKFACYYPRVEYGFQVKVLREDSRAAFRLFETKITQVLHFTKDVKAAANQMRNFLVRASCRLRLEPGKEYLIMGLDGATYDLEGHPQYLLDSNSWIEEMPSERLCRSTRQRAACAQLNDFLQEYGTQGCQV
Sequence of 'dead' C3(NH3), P01024 (P01024 whole entry, looked up): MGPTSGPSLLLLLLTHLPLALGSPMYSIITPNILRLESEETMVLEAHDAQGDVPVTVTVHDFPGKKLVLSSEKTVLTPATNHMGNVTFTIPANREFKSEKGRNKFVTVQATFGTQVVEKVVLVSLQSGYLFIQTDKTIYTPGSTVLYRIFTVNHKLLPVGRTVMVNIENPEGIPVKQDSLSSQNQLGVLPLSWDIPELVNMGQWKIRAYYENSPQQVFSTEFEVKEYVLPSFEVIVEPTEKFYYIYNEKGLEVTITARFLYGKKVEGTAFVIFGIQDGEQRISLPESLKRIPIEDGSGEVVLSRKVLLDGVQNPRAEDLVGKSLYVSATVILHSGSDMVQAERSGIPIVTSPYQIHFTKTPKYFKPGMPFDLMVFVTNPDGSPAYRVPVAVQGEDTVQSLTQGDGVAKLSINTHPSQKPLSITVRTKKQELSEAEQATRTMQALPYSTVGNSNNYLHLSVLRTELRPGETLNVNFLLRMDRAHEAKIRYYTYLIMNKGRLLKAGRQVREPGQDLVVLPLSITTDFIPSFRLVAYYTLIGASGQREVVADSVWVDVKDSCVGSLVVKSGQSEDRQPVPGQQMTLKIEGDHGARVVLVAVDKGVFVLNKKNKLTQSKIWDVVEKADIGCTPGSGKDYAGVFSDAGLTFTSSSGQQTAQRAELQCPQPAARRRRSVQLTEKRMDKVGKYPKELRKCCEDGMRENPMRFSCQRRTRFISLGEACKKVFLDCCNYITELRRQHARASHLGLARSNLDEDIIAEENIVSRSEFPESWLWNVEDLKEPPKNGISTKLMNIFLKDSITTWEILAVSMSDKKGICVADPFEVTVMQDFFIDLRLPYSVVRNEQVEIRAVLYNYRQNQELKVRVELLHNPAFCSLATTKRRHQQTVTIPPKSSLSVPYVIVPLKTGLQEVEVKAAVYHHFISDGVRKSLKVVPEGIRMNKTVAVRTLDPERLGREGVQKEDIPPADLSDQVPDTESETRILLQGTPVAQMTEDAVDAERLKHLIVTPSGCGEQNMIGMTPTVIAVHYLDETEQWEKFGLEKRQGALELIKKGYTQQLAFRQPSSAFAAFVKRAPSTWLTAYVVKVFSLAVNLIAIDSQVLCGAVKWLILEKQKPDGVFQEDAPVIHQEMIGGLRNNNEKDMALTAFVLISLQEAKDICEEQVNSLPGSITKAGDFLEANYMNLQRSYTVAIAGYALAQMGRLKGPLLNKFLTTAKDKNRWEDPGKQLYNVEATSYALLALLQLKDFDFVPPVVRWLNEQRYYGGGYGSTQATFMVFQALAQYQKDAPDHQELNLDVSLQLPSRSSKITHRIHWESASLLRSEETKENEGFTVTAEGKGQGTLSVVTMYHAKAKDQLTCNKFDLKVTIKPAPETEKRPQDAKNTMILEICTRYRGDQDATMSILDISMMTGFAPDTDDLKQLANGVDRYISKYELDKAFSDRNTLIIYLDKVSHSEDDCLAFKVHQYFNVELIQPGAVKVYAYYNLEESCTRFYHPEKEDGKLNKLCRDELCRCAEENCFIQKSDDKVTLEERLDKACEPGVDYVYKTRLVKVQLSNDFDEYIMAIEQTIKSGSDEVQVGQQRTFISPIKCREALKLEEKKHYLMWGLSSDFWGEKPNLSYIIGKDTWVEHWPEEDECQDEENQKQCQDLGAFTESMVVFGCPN
Sequence of 'live' C3 (C3 with an intact thiol ester bond), P01024 (P01024 whole entry, looked up): as above

B1: MASP-1 CCP1-CCP2-SP fragment (protein)
chain 1: ASMTGNECPELQPPVHGKIEPSQAKYFFKDQVLVSCDTGYKVLKDNVEMDTFQIECLKDGTWSNKIPTCKIVDCRAPGELEHGLITFSTRNNLTTYKSEIKYSCQEPYYKMLNNNTGIYTCSAQGVWMNKVLGRSLPTCLPVCGLPKFSRKLMAR
chain 2: IFNGRPAQKGTTPWIAMLSHLNGQPFCGGSLLGSSWIVTAAHCLHQSLDPEDPTLRDSDLLSPSDFKIILGKHWRLRSDENEQHLGVKHTTLHPQYDPNTFENDVALVELLESPVLNAFVMPICLPEGPQQEGAMVIVSGWGKQFLQRFPETLMEIEIPIVDHSTCQKAYAPLKKKVTRDMICAGEKEGGKDACAGDSGGPMVTLNRERGQWYLVGTVSWGDDCGKKDRYGVYSYIHHNKDWIQRVTGVRN
kobs (pseudo-first order rate of reaction at [C1-inh] = 350 nM) [1]: 0.0014 s⁻¹ | KM, C4 cleavage [2]: 2.7 µM | kcat, C4 cleavage [2]: 0.002 s⁻¹ | kcat/KM, C4 cleavage [2]: 690 M⁻¹ s⁻¹ | cleavage in the competing oligopeptide substrate library [3]: both enzymes cleave oligopeptides that contain either Arg or Lys at their P1 positions | digestion of the P1 Arg oligopeptide at 15 min [3]: at 15 min MASP-1 showed almost 90% digestion | efficiency of digestion against the MASP-2 CCP1-CCP2-SP fragment [3]: the MASP-1 CCP1-CCP2-SP fragment digests the P1 Arg peptide 4-5 fold more efficiently than the corresponding fragment of MASP-2 | kcat/KM, cleavage of C3(NH3) [4]: 6100 M⁻¹ s⁻¹ | KM, C2 cleavage [5]: 4.8 µM | kcat, C2 cleavage [5]: 0.1 s⁻¹ | kcat/KM, C2 cleavage [5]: 30000 M⁻¹ s⁻¹ | kcat/KM, cleavage of live C3 [6]: 300 M⁻¹ s⁻¹ | cleavage in the competing oligopeptide substrate library [7]: both enzymes cleave oligopeptides that contain either Arg or Lys at their P1 positions | fold lower kobs than for the MASP-2 CCP1-CCP2-SP fragment [8]: 5-fold less for the MASP-1 CCP1-CCP2-SP than for the MASP-2 CCP1-CCP2-SP fragment

B2: MASP-2 CCP1-CCP2-SP fragment (protein)
chain 1: IHYTSTAQPCPYPMAPPNGHVSPVQAKYILKDSFSIFCETGYELLQGHLPLKSFTAVCQKDGSWDRPMPACSIVDCGPPDDLPSGRVEYITGPGVTTYKAVIQYSCEETFYTMKVNDGKYVCEADGFWTSSKGEKSLPVCEPVCGLSARTTGGR
chain 2: IYGGQKAKPGDFPWQVLILGGTTAAGALLYDNWVLTAAHAVYEQKHDASALDIRMGTLKRLSPHYTQAWSEAVFIHEGYTHDAGFDNDIALIKLNNKVVINSNITPICLPRKEAESFMRTDDIGTASGWGLTQRGFLARNLMYVDIPIVDHQKCTAAYEKPPYPRGSVTANMLCAGLESGGKDSCRGDSGGALVFLDSETERWFVGGIVSWGSMNCGEAGQYGVYTKVINYIPWIENIISDF
kobs (pseudo-first order rate of reaction at [C1-inh] = 350 nM) [1]: 0.0078 s⁻¹ | KM, C4 cleavage [2]: 1.6 µM | kcat, C4 cleavage [2]: 0.9 s⁻¹ | kcat/KM, C4 cleavage [2]: 550000 M⁻¹ s⁻¹ | cleavage in the competing oligopeptide substrate library [3]: both enzymes cleave oligopeptides that contain either Arg or Lys at their P1 positions | digestion of the P1 Arg oligopeptide at 15 min [3]: MASP-2 cleaved less than 20% of the substrate | kcat/KM, cleavage of C3(NH3) [4]: 3300 M⁻¹ s⁻¹ | KM, C2 cleavage [5]: 4 µM | kcat, C2 cleavage [5]: 1.9 s⁻¹ | kcat/KM, C2 cleavage [5]: 500000 M⁻¹ s⁻¹ | kcat/KM, cleavage of live C3 [6]: 350 M⁻¹ s⁻¹ | molar excess needed to abolish cleavage of complement substrates [9]: or with a large molar excess (40 fold) of alpha-2-macroglobulin | cleavage in the competing oligopeptide substrate library [7]: both enzymes cleave oligopeptides that contain either Arg or Lys at their P1 positions
